Assay [1] has as its target rTRPV6* (rat TRPV6 construct previously used for crystallographic studies) (rat). The experiment in a line: cryo-EM structure.
The target of a further assay is hTRPV6-R470E (human). The experiment in a line: cryo-EM structure.
The target of the next assay is T1, hTRPV6 (Homo sapiens, UniProt Q9H1D0, R510E).
T1 sequence (Q9H1D0 41-765 R510E): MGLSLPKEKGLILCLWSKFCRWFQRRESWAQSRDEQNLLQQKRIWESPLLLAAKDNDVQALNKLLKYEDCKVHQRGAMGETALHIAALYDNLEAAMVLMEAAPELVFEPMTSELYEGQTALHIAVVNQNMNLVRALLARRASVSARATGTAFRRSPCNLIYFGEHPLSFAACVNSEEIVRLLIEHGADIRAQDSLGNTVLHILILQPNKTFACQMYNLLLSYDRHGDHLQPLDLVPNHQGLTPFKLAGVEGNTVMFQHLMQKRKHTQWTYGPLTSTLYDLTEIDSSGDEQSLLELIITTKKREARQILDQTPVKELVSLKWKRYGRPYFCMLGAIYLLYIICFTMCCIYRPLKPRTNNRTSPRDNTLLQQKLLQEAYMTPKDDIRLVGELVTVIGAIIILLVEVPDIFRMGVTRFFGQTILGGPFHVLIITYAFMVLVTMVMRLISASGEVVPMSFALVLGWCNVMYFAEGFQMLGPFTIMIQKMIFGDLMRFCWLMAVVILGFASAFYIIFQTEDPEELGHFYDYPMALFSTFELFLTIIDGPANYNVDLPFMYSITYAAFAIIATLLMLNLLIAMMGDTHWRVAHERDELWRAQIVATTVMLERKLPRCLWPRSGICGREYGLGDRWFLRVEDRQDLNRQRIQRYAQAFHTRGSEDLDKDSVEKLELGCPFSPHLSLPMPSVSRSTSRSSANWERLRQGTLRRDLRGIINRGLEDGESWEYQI
Description: Fura-2 AM ratiometric Ca2+ uptake in HEK cells. The class given is cell-based.

We go through 3 compounds from paper PMC5854407 (Nature, 2017).

For orientation: stoichiometry N means a count of units in the complex or per binding partner. For the compound “rTRPV6* (rat TRPV6 construct previously used for crystallographic studies) (natural protein)”, in assay [1], the stoichiometry N turned out to be 4.

In turn, hTRPV6-R470E (natural protein) had a stoichiometry N with hTRPV6-R470E (human) of 4.

For orientation: IC50 means the concentration that gives 50% inhibition. Compound `NCCOB(c1ccccc1)c1ccccc1` [2-APB] came in with an IC50 against hTRPV6 of 85 ± 5 µM.
